In PMC11079029, “Intramolecular autoinhibition regulates the selectivity of PRPF40A tandem WW domains for proline-rich motifs” (Nature Communications, 2024):

How the values were obtained:
[1] = target: GB1-SF1(596-611) 16-mer peptide; assay: ITC; MicroCal PEAQ-ITC, 25 °C, 20 mM sodium phosphate pH 6.5, 100 mM NaCl; PRPF40A constructs and GB1-tagged SF1 16-mer peptides; who was in the syringe is not stated for these panels (Fig. 2B, Fig. 5C); one-site model
[2] = target: GB1-SF1 16-mer peptide 596-611; assay: ITC; GB1-peptide or GB1-SF1 construct in the cell, PRPF40A WW12 in the syringe (as shown in Supplementary Figures 7 and 16A); 25 °C, 20 mM sodium phosphate pH 6.5, 100 mM NaCl; one-site binding model; at least duplicates; affinities apparent
[3] = target: GB1-SF1 16-mer peptide 575-590 (SF1 PRPF40A WW binding site, GB1-tagged); assay: as above
[4] = target: GB1-SF1 16-mer peptide 623-638; assay: as above
[5] = target: GB1-SF1 16-mer peptide 470-485; assay: as above
[6] = target: GB1-SF1 16-mer peptide 425-440; assay: as above
[7] = target: GB1-SF1 16-mer peptide 478-493; assay: as above
[8] = target: PRPF40A N-ext-WW12 mutant (residues 56-236, PPVP/PALPP motifs changed to alanines) (human) (UniProt O75400); assay: ITC; PRPF40A construct (WW12, N-ext-WW12 or its mutant) in the cell, GB1-SF1 or GB1-SF3A1 construct in the syringe (as shown in Supplementary Figures 16 and 21); 25 °C, 20 mM sodium phosphate pH 6.5, 100 mM NaCl; one-site binding model; at least duplicates; affinities apparent
[9] = target: PRPF40A N-ext-WW12 (N-terminally extended WW tandem, residues 56-236) (human) (UniProt O75400); assay: as above

Kd [1] [µM]	Kd [2] [µM]	stoichiometry N [2] [sites]	Kd [3] [µM]	stoichiometry N [3] [sites]	Kd [4] [µM]	stoichiometry N [4] [sites]	Kd [5] [µM]	stoichiometry N [5] [sites]	Kd [6] [µM]	stoichiometry N [6] [sites]	Kd [7] [µM]	stoichiometry N [7] [sites]	Kd [8] [µM]	stoichiometry N [8] [sites]	Kd [9] [µM]	stoichiometry N [9] [sites]	Substance
65.9	65.9	1.1	1.4	1	23.3	0.95	13.9	0.9	20.2	0.87	9.59	0.8	–	–	–	–	PRPF40A WW12 (tandem WW domains, residues 141-236) (from UniProt O75400 141-236) (domain or fragment)
–	–	–	–	–	–	–	–	–	–	–	–	–	2.21	0.84	8.71	0.88	GB1-SF1 16-mer peptide 575-590 (SF1 PRPF40A WW binding site, GB1-tagged)
